Target: bovine brain αβ-tubulin (taxol-stabilised microtubules, dolastatin-induced rings or DARPin-capped free dimer … (bovine, UniProt Q6B856 1-445))
Experiment: AMPPNP

bovine brain αβ-tubulin (taxol-stabilised microtubules, dolastatin-induced rings or DARPin-capped free dimer …, sequence (chain, as listed by the source, chain 1 of 2): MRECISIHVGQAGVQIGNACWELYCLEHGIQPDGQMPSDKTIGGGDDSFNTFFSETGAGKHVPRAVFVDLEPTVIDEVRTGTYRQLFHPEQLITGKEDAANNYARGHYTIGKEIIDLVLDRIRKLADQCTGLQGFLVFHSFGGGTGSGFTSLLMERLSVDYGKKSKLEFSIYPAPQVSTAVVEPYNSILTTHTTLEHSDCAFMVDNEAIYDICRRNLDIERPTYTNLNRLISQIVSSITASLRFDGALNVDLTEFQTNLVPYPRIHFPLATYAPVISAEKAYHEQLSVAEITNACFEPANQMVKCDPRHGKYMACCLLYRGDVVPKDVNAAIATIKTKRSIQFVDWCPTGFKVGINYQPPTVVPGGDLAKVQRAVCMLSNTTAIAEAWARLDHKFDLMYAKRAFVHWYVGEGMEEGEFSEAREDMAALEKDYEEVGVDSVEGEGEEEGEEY
bovine brain αβ-tubulin (taxol-stabilised microtubules, dolastatin-induced rings or DARPin-capped free dimer …, sequence (Q6B856 whole entry, chain 2 of 2): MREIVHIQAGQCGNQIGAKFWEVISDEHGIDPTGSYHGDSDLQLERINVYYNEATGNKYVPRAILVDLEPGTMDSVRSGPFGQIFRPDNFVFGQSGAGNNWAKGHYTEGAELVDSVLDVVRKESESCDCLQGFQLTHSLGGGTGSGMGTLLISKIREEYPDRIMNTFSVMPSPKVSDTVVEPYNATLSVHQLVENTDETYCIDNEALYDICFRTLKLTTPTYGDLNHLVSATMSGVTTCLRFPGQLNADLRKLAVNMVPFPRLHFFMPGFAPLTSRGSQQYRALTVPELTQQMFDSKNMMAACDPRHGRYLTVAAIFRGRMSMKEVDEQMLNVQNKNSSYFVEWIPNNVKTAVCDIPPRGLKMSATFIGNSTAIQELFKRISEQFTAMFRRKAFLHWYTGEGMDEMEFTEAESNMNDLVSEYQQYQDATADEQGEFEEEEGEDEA

B1: CaKip3-MDN (Candida albicans Kip3 motor domain and slightly truncated neck-linker, residues 1-436) (domain or fragment)
chain: MSYPNSLGSPATVTSTSVPTAKQSSISVAVRVRPFTEAESNRLVKIDNDDVFLGDGCLTSDNNNNNNNSNSNGNGNGNGSSAANSSGASTSRRAIFNTLGGLRKIINVVDDRMLIFDPPETNPLTKMQRNAFPNSFKGSRIREHRFVFDRLFDEDCTQDQVYRNTTQPLLDSVLDGYNATVFAYGATGCGKTHTISGTPEDPGVIFLTMKELYNRIEELKDTKIIDISLSYLEIYNETIRDLLNPMTQCKNLVIREDANNKISVSNLSRHRPNSVEEVMQLILEGNKNRTCSPTEANATSSRSHAVLQINVIQKDRTGDITEEHTFATLSIIDLAGSERAAATKNRGARLNEGANINKSLLALGNCINALCDPRRRNHVPYRDSKLTRLLKFSLGGNCKTVMIVCVSPSSQHYDETLNTLKYADRAKEIKTKLIRN
  Kd: 43 nM

B2: HsKHC-MDN (human kinesin-1 heavy chain KIF5B construct equivalent to CaKip3-MDN) (domain or fragment)
chain: MADLAECNIKVMCRFRPLNESEVNRGDKYIAKFQGEDTVVIASKPYAFDRVFQSSTSQEQVYNDCAKKIVKDVLEGYNGTIFAYGQTSSGKTHTMEGKLHDPEGMGIIPRIVQDIFNYIYSMDENLEFHIKVSYFEIYLDKIRDLLDVSKTNLSVHEDKNRVPYVKGCTERFVCSPDEVMDTIDEGKSNRHVAVTNMNEHSSRSHSIFLINVKQENTQTEQKLSGKLYLVDLAGSEKVSKTGAEGAVLDEAKNINKSLSALGNVISALAEGSTYVPYRDSKMTRILQDSLGGNCRTTIVICCSPSSYNESETKSTLLFGQRAKTIKNTVCVN
  Kd: 350 nM
